± gives the uncertainty stated by the source.
Assay: amyloid nucleation score (Sup35N fusion, yeast selection) (log enrichment); library NNK1; higher = more nucleation; inactive = no reads after selection
Method in brief: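 Sup35N fusions to peptides of 20 random codons were expressed in psi-negative yeast, induced 24 hours with 100 μM copper sulfate, and grown 7 days at 30°C on medium lacking adenine and uracil. Input and output plasmid inserts were sequenced by Illumina. The nucleation score is the DiMSum log enrichment of output over input reads, centred on the mode score of non-aggregating sequences. Sequences with under 100 input reads were excluded.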

Point of comparison: DVLVHLP, amyloid nucleation score -0.917 ± 1.2. Against it:
- DGLKGSLCGMGHRLCLKKMN — within error, 0.131 ± 0.41
- DGQPLLMGEHYSLGITLM — higher, 1.1 ± 0.81
- DGRRTDWVLCNGARIRTCYD — within error, -0.316 ± 0.44
- DGSLKVELQR — higher, 1.14 ± 0.49
- DGTVR — higher, 1.62 ± 0.17
- DIFHSLILHMDMYEG — within error, 0.811 ± 0.85
- DIGAVIAWSNRLVWLQPTLL — within error, -0.506 ± 0.84
- DILDSH — within error, -0.824 ± 0.38
- DINWYTLDAHV — within error, -1.86 ± 1.9
- DISDRGTDIFVSTPGSSMLS — within error, 0.503 ± 0.43
- DKGVFAMDKRITMVEFLS — within error, -0.87 ± 1.3
- DKLICLMLEAASICYKVQSG — within error, -0.673 ± 0.57
- DKNGIPYISCEYNQM — within error, -0.46 ± 0.72
- DKSFDFVLGSEACMVVEVGN — within error, -0.496 ± 0.61
- DKTKLLLTLRNWLSP — within error, 0.177 ± 0.56
- DLADNVRKMGEFTSSVANIL — within error, 0.204 ± 0.4
- DLDSVGTVMGDQGDFS — within error, -0.416 ± 0.55
- DLEPWWACLAKGSSGLISYV — within error, 0.396 ± 0.38
- DLFICSSARAVNKIFRVLHA — within error, 0.511 ± 0.91
- DLIMFD — within error, -0.029 ± 0.73
- DLKALCCDRMKVLGFVRSPG — higher, 1.18 ± 0.42
- DLNCFAFVWVIIYTRDGWTI — within error, -0.353 ± 0.3
- DLSMKRVDKAPCYGNGDYRT — within error, -0.644 ± 0.98
- DLVSTVKDGAECDDKEECSL — within error, -0.147 ± 0.26
- DMHQRMPVFHGHRATYCC — within error, 0.102 ± 0.56
- DMNDYSK — within error, -0.592 ± 0.39
- DMNNNIVSKSSFLGDVRVIY — within error, -0.19 ± 1.2
- DMVVRDQHL — higher, 4.7 ± 0.066
- DNMFDTWLSGATV — within error, -0.554 ± 0.66
- DNNYSCILAASYLYGLKNYL — within error, -0.12 ± 0.51
- DNRIIWLRGTMS — within error, 0.853 ± 0.92
- DNWSMGYPEETGAWGVN — within error, 0.406 ± 0.45
- DPARGWPQNVNLFLLSNRR — higher, 1.01 ± 0.63
- DPMHYL — higher, 4.55 ± 0.098
- DPSSLNSGPCLHMAGGCGNQ — within error, -0.249 ± 1.7
- DQFLGYMANVAGVVP — higher, 0.686 ± 0.34
- DRAWTGVWDDESPTT — within error, -0.383 ± 1.7
- DRITLLRYPWKSIAISIDEG — higher, 0.993 ± 0.36
- DRRFFSSV — within error, -1.36 ± 1
- DRRRVVNINARQSVNIRFRM — higher, 8.53 ± 0.044
- DRSTIWSTHNSTYVVYYLVV — higher, 5.18 ± 0.063
- DRYYAGF — within error, 0.464 ± 0.55
- DSASGNILYIRKLVI — higher, 1.84 ± 0.13
- DSCLEGM — higher, 1.5 ± 0.66
- DSDGFQRVPD — within error, -0.736 ± 0.68
- DSLIDRSKVLKQTLYSTYWL — within error, -0.12 ± 0.48
- DSMYF — within error, 0.367 ± 0.53
- DSRNTDFTCYFEIYYCCVNL — higher, 8.069 ± 0.063
- DSSLCFGSYLWLVAMSLK — within error, -0.489 ± 0.75
- DSTILNSLSPVWPRSATGPS — within error, -0.529 ± 0.63
- DSTLTVKFLMMVRYMVCSVG — higher, 1.71 ± 0.25
- DSVVFSWVTYNTSSLSYHCG — higher, 2.41 ± 0.2
- DTGLGVCWSAKLGYCVWGSL — higher, 6.61 ± 0.071
- DTNKNFSFSKAQ — within error, -0.081 ± 0.37
- DTSYGLQRVCKGR — within error, 0.429 ± 0.53
- DTVSLWLPARMTNDNFQDLS — within error, 0.399 ± 0.22
- DVAPLGCGEPCYGSY — within error, -1.22 ± 1.4
- DVFHTLIRSRLDFFFYKRER — within error, 0.14 ± 0.4
- DVFIGMMLRACNVLHSGWFS — within error, 0.18 ± 0.23
- DVGGCHVVTGFERNVKGDLL — higher, 1.44 ± 0.78
- DVSPLVFVC — within error, -0.407 ± 0.74
- DVYVSCGYVSQMGPHAEWDG — within error, 0.102 ± 0.54
- DWDSALPSLNFDSETPFYKS — within error, -0.649 ± 0.48
- DWLFVGGGR — within error, 0.131 ± 0.56
- DWMNYVWTVTRIGSYSMVGI — higher, 1 ± 0.68
- DWPFQYDVKSRLVILLWFVR — within error, 0.086 ± 1.4
- DWQSVRKFLRSVVIRMVSLV — within error, -0.399 ± 0.24
- DWRLNLVYKMSA — within error, 0.734 ± 0.75
- DWVLTGGRIWK — within error, -0.803 ± 0.54
- DWVVSCAYGFSSARNGGVCL — within error, -0.039 ± 0.39
- DYFIVGTSVGGDSVTLDNQM — within error, 0.042 ± 0.34
- DYGNTVNYSSGEDVHWL — within error, -0.592 ± 1.7
- DYLLFSVQGNYESWYNGCKF — within error, -2.05 ± 2.4
- DYSCARYEPGNMVLLC — within error, -0.813 ± 1.5
- DYTRC — within error, 0.391 ± 0.97
- EAGHSIFNGNWRGID — within error, -0.536 ± 1.2
- EAIIEWWFHDSLASHSCTEV — within error, 0.58 ± 1.2
- EALCSTSEGILHKEWF — within error, 0.178 ± 0.28
- ECDSAFRSQGGGLACLFRMK — within error, -0.171 ± 0.42
- ECIIYPIVMHVFVQNMM — higher, 1.56 ± 0.28
- EDALRIFRKETDPDL — higher, 0.681 ± 0.29
- EDCIMGNWNLCSKGSSGF — within error, 0.374 ± 0.3
- EDHVVYQSADRFLRNCNWEY — within error, 0.266 ± 0.43
- EDLRVTGAKGYGCAECRACV — within error, -0.186 ± 1.9
- EDMWKTCTAV — within error, 0.244 ± 0.37
- EDSLFRSVLILMSVMFIQVD — higher, 1.05 ± 0.38
- EDSSTSLLVGMELKRLTVSF — within error, 0.258 ± 0.35
- EDTSMELWVSAGIRGGLPLV — within error, -1.13 ± 0.94
- EDTWVLLSHYHFNSMLSLLM — within error, 0.161 ± 0.26
- EFDTQSCQVDTVAVYIEPSL — within error, 0.793 ± 0.65
- EFEPLSFQLVVELMRKFL — higher, 1.52 ± 0.19
- EFKLDNFQIVGYLLLTRRLI — within error, 0.222 ± 0.32
- EFKLIDLFLLYWLSREHNQF — within error, 0.391 ± 0.42
- EFTVPRWTPTGHTSGSLEWV — within error, 0.22 ± 0.41
- EFWGVSLLVFVFCELIGIFC — within error, -0.479 ± 0.38
- EGACVKSRVWDRINVTGRSR — higher, 1.25 ± 0.68
- EGNMNEWTCLSCRSRAEEAR — within error, -0.255 ± 0.9
- EGSIFCMRNCRTIWCSEE — within error, -0.359 ± 0.33
- EGYPTMSMNSRS — within error, 0.716 ± 0.44
- EHGNVACRWDTHISLVWCHF — higher, 7.304 ± 0.057
- EHTRKGGSCNMLQRQPFCCT — within error, 0.487 ± 0.52
- EIASLTRCYRSYRIVSWLRG — within error, 0.341 ± 0.37
- EIHGCGCPLSKDGGGAFMWA — higher, 1.22 ± 0.63
- EINCHSSMGFMRWPPRSGNG — within error, -0.962 ± 1
- EIQGPVRT — within error, -0.233 ± 0.59
- EIRLNYMGFGPKCT — higher, 0.735 ± 0.27
- EISQNTL — within error, -0.672 ± 0.32
- EITVAVSDYGVGSTWSG — within error, 0.381 ± 0.84
- EITWCF — within error, 0.485 ± 0.72
- EKLSRAVYPRASIRVVCMLF — within error, -0.204 ± 0.34
- EKTYSCHECFFIWPRSY — within error, -1.09 ± 0.75
- EKVGLTCQRGIVLVDNIFMQ — higher, 6.986 ± 0.045
- EKYDGCIFEEKQMIAGAHGM — within error, 1.15 ± 0.88
- ELFAFCMVPYYTRNMLWLVG — within error, 0.584 ± 0.97
- ELGLSINFQIANFAACQGYI — higher, 1.99 ± 0.24
- ELGTVFGLTYYTMTDYVPMT — within error, 0.483 ± 0.22
- ELGYSTHCIMS — within error, -0.735 ± 0.66
- ELKQIKVGRSLWRMVRRMGD — higher, 1.37 ± 0.36
- ELRCLQVINGLASLSASVWW — within error, 0.067 ± 0.64

For DKLLPHFK, the amyloid nucleation score was “inactive”.
For DLHWILNHTNGACFQWGQPA, the amyloid nucleation score was “inactive”.
In the case of DTLGRSLLYYIRYSRVNFPV, the amyloid nucleation score is reported as “inactive”.
With DTNVVWYYLSWDSPGNGDWK the amyloid nucleation score was “inactive”.
For EFGFVWVKLCNWGISLLQVN, the amyloid nucleation score was “inactive”.
For EISVKECGGSLDYNANLRDR, the amyloid nucleation score was “inactive”.
For EIWWYKVERAVLTVFREDCL, the amyloid nucleation score was “inactive”.

Source: the supplement of paper PMC12042874
